1 molecule from PMC6980381 (Science (New York, N.Y.), 2019) can be followed below.

The target of this experiment is T1, Npl4 (untagged, of the Ufd1/Npl4 cofactor complex) (S. cerevisiae, UniProt P33755 1-580).
T1 sequence: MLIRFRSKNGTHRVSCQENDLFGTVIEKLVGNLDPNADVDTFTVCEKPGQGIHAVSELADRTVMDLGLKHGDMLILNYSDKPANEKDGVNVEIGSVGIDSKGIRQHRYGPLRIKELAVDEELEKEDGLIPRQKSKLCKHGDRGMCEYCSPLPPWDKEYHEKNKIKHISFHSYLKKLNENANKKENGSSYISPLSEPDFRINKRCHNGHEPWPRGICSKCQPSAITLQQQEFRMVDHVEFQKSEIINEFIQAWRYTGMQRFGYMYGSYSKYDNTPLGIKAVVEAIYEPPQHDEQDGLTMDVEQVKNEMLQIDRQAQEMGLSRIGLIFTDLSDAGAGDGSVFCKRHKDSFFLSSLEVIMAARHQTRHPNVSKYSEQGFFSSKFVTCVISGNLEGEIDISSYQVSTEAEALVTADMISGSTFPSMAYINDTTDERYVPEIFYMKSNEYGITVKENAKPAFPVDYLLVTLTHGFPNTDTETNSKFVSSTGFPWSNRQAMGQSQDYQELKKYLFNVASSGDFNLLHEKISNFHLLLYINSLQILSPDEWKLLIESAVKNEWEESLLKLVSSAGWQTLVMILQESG
Kind of experiment: cryo-EM structure.

B1: Ufd1 (untagged, of the Ufd1/Npl4 cofactor complex) (natural protein, S. cerevisiae, UniProt P53044 1-361, looked up)
chain: MFSGFSSFGGGNGFVNMPQTFEEFFRCYPIAMMNDRIRKDDANFGGKIFLPPSALSKLSMLNIRYPMLFKLTANETGRVTHGGVLEFIAEEGRVYLPQWMMETLGIQPGSLLQISSTDVPLGQFVKLEPQSVDFLDISDPKAVLENVLRNFSTLTVDDVIEISYNGKTFKIKILEVKPESSSKSICVIETDLVTDFAPPVGYVEPDYKALKAQQDKEKKNSFGKGQVLDPSVLGQGSMSTRIDYAGIANSSRNKLSKFVGQGQNISGKAPKAEPKQDIKDMKITFDGEPAKLDLPEGQLFFGFPMVLPKEDEESAAGSKSSEQNFQGQGISLRKSNKRKTKSDHDSSKSKAPKSPEVIEID
On to B1, for which the binding result was “binds”.
